Reference: US7387779B2, “Anti-angiogenic proteins and fragments and methods of use thereof” (Beth Israel Deaconess Medical Center, priority 1998, dated 2008)

Tests used:
ERK = ERK activation (phospho-ERK western blot) in HUVEC; format: cell-based, human; details: 20 μg/ml
Procedure: In order to further understand the molecular mechanisms involved in Canstatin's anti-proliferative and anti-migratory activities, the effect of Canstatin on ERK (Extracellular signal-Regulated Kinase) activation induced by 20% fetal bovine serum and endothelial mitogens was assessed. HUVEC cells were cultured overnight in McCoy's medium supplemented with 20% FBS, 1% penicillin/streptomycin, 100 μg/ml heparin and 50 μg/ml endothelial mitogen (Biomedical Technologies, Inc., Cambridge, Mass., USA). The following day, cells were washed and grown for 4 hours in low serum medium (McCoy's medium supplemented with 1% penicillin/streptomycin, 100 μg/ml heparin and 5% FBS). After 4 hours, the medium was replaced with fresh low serum medium with or without 20 μg/ml Canstatin. One hour later the serum concentration was adjusted to 20% and endothelial mitogen was added to a final concentration of 50 μg/ml. At 0, 5, 10, 25, and 40 minutes, the cells were washed with PBS and lysed with passive lysis mix (Promega, Madison, Wis., USA) plus leupeptin, PMSF, NaF, Na3VO4, β-glycerophosphate, and sodium pyrophosphate. Lysates were quantified for protein concentration and separated on 12% SDS-PAGE gels. Western blots of phospho-ERK were made for serum-treated and serum+Canstatin-treated HUVECs using anti-phospho-ERK antibodies (New England Biolabs, Beverly, Mass., USA). […]

[1] = test system: A-498 (renal carcinoma) cells; test: Proliferation of control cells, 3H-thymidine incorporation; format: cell-based; details: endostatin 0.1-10 μg/ml
Procedure: C-PAE cells were grown to confluence in DMEM with 10% fetal calf serum (FCS) and kept contact inhibited for 48 hours. Control cells were 786-O (renal carcinoma) cells, PC-3 cells, HPEC cells, and A-498 (renal carcinoma) cells. Cells were harvested with trypsinization (Life Technologies/Gibco BRL, Gaithersburg, Md., USA) at 37° C. for five minutes. A suspension of 12,500 cells in DMEM with 1% FCS was added to each well of a 24-well plate coated with 10 μg/ml fibronectin. The cells were incubated for 24 hours at 37° C. with 5% CO2 and 95% humidity. Medium was removed and replaced with DMEM containing 0.5% FCS and 3 ng/ml bFGF (R&D Systems, Minneapolis, Minn., USA). Unstimulated controls received no bFGF. Cells were treated with concentrations of Arresten or endostatin ranging from 0.01 to 50 μg/ml. All wells received 1 μCurie of ^3H-thymidine at the time of treatment. After 24 hours, medium was removed and the wells were washed with PBS. Cells were extracted with 1N NaOH and added to a scintillation vial containing 4 ml of ScintiVerse II (Fisher Scientific, Pittsburgh, Pa., USA) solution. Thymidine incorporation was measured using a scintillation counter. The results are shown in FIGS. 3A and 3B, which are a pair of graphs showing incorporation of ^3H-thymidine into C-PAE cells treated with varying amounts of Arresten (FIG. 3A) or endostatin (FIG. 3B). […]

bovine endothelial cells = test: Cap-dependent (LUC) / cap-independent (CAT) translation reporter; format: cell-based; details: 4.5 μM; 21 hours
WM-164 cells = test: MTT cell viability assay; format: cell-based, human
Source text: The MTT assay was used to evaluate cell viability in C-PAE endothelial cells and WM-164 melanoma cells after treatment with Tumstatin, Tum-1, Tum-2, Tum-3 and Tum-4. The results are shown in FIGS. 34A and 34B, which are a pair of graphs showing the effect of increasing concentration (x-axis) of Tumstatin, Tum-1, Tum-2, Tum-3 and Tum-4 on the cell viability (y-axis) of C-PAE cells (FIG. 34A) and WM-164 cells (FIG. 34B). Each point represents the mean ±the standard error of the mean for triplicate wells.

αvβ3 integrin protein = target: T1, αvβ3 integrin protein (Homo sapiens, UniProt P05106+P06756); test: Competition proliferation assay with soluble αvβ3 protein, WM-164 cells; format: cell-based; details: αvβ3 protein at 2 μg/ml
T1 construct: purchased CHEMICON Int'l, Temecula, Calif., USA
T1 sequence (P06756 31-889 limits assumed): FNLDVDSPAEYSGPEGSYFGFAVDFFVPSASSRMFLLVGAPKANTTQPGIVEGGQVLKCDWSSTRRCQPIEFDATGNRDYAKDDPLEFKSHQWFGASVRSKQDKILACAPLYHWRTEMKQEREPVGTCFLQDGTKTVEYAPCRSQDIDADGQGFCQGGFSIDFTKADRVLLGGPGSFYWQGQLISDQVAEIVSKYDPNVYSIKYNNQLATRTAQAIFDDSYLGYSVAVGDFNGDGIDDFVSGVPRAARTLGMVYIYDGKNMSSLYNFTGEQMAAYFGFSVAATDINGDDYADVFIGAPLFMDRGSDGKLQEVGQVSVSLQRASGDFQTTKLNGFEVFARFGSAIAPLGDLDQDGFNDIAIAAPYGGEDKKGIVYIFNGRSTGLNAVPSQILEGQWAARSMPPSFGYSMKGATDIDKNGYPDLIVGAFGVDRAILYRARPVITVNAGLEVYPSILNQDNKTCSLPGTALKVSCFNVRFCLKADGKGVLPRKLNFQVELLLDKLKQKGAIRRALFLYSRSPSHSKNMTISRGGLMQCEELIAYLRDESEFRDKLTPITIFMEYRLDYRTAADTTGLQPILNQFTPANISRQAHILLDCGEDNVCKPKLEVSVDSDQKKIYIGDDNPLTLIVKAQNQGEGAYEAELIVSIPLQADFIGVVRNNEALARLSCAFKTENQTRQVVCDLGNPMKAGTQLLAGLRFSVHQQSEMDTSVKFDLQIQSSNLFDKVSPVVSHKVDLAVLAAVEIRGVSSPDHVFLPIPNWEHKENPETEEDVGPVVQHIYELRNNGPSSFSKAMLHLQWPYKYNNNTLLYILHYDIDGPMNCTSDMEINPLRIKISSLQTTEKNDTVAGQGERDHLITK
T1 sequence (P06756 891-1048 partner limits assumed): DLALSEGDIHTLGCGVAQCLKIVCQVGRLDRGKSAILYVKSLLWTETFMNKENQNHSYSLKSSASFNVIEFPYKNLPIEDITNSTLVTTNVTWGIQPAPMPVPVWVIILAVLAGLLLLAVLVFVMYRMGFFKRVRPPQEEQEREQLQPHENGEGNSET
T1 sequence (P05106 27-788): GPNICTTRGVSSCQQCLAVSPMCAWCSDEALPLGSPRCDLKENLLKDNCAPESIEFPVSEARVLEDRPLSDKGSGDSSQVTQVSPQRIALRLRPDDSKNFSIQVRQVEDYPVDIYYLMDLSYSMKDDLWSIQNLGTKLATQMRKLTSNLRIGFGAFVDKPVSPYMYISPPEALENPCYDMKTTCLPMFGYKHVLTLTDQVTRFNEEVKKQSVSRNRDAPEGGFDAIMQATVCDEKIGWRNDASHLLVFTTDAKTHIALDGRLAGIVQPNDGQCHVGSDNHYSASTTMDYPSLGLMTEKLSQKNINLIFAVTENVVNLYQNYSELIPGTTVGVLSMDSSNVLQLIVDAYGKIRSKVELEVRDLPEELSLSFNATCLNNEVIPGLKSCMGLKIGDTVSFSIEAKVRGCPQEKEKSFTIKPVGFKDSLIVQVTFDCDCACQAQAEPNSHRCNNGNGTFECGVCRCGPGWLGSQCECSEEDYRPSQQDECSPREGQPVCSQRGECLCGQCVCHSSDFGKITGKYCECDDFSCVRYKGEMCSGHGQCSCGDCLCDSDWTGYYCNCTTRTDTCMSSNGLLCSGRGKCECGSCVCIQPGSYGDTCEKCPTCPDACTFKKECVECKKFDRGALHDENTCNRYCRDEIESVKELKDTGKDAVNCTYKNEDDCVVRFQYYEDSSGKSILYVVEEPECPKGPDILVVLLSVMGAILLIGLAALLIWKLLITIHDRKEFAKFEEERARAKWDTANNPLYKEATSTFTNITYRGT
Procedure: αvβ3 was then tested for its ability to negate the anti-proliferative effect of Tum-4 on melanoma cells. Tumstatin and Tum-4 were pre-incubated for 30 minutes at room temperature with αvβ3 integrin protein, then added to WM-164 cells grown in 96-well plates. After 48 hours of incubation, the increase in cell number was determined by methylene blue staining. Tumstatin had no effect on WM-164 cells.

DU-145 cells = test: MTT cell viability assay; format: cell-based; details: 0-50 μg/ml
Procedure: (§1) Cell viability was measured by MTT assay, as described above.
(§2) The effects of Tumstatin-44-131 and Tum-5-125-C-A on cell viability of C-PAE cells were not seen in control PC-3 and DU-145 cells, as shown in FIGS. 52C and 52D. […] The activity of Tumstatin-44-131 is therefore specific to endothelial cells.

PC-3 cells = test: MTT cell viability assay; format: cell-based, human; details: 0-50 μg/ml
Procedure: as §1, §2

HUVEC cells = test: Cell surface labeling with biotinylated Tumstatin-44-131; format: binding, human; details: streptavidin-FITC
Procedure: Recombinant E. Coli-expressed Tumstatin-44-131 was biotinylated using Sulfo-NHS-LC-Biotin (Pierce Chem. Co). Tumstatin-44-131, in a buffer containing 10% DMSO and 5% D-mannitol, was incubated with 12 M excess of Sulfo-NHS-LC-Biotin overnight at 4° C. The biotinylated Tumstatin-44-131 precipitated out of solution during this incubation. The precipitate was washed twice with distilled water, resuspended in DMSO, and then mixed 1:1 with distilled water to obtain a final concentration of approximately 4 mg/ml. The biotinylated Tumstatin-44-131 was stored at 4° C.
For cell surface labeling, subconfluent HUVEC cells were removed from the flask using EDTA with light trypsinization, and then washed twice with DMEM containing 2% BSA. Cells were then resuspended in DMEM/BSA and incubated for 1 hour at 4° C. with either biotin-labeled Tumstatin-44-131 or the product of a mock biotin reaction run without Tumstatin-44-131. Cells were then washed twice with DMEM/BSA and then incubated with streptavidin-FITC (“Neutravidin-FITC”, Pierce Chem. Co) for thirty minutes at 4° C. Samples were then viewed on a Nikon Eclipse E600 fluorescent microscope and analyzed by flow cytometry.

B1: Canstatin: NC1 domain of the α2 chain of Type IV collagen (SEQ ID NO:6) (protein, listed as Homo sapiens)
chain: VSIGYLLVKHSQTDQEPMCPVGMNKLWSGYSLLYFEGQEKAHNQDLGLAGSCLARFSTMPFLYCNPGDVCYYASRNDKSYWLSTTAPLPMMPVAEDEIKPYISRCSVCEAPAIAIAVHSQDVSIPHCPAGWRSLWIGYSFLMHTAAGDEGGGQSLVSPGSCLEDFRATPFIECNGGRGTCHYYANKYSFWLTTIPEQSFQGSPSADTLKAGLIRTHISRCQVCMKNL
- effect on ERK activation (ERK): did not alter early activation of ERK

B2: endostatin: tumor associated angiogenesis inhibitor used as comparator (protein, UniProt P39060 1572-1754, looked up)
Endostatin: HSHRDFQPVLHLVALNSPLSGGMRGIRGADFQCFQQARAVGLAGTFRAFLSSRLQDLYSIVRRADRAAVPIVNLKDELLFPSWEALFSGSEGPLKPGARIFSFDGKDVLRHPTWPQKSVWHGSDPNGRRLTESYCETWRTEAPSATGQASSLLGGRLLGQSAASCHHAYIVLCIENSFMTASK
modifications: Endostatin
- effect on proliferation [1]: did not inhibit
- decrease of cap-dependent translation of LUC (bovine endothelial cells): did not affect cap-dependent translation

B3: Tum-4: residues 181 to 244 of Tumstatin (SEQ ID NO:25) (protein)
chain: EFRASPFLECHGRGTCNYYSNSYSFWLASLNPERMFRKPIPSTVKAGELEKIISRCQVCMKKRH
modifications: Tum-4 (amino acids 181-244 of SEQ ID NO10)
- effect on viability of WM-164 melanoma cells (WM-164 cells): decreased the viability
- recovery of anti-proliferative effect by soluble αvβ3 protein (αvβ3 integrin protein): 76.7%

B4: Tumstatin-44-131: residues 44 to 131 of full-length Tumstatin (SEQ ID NO:33) (protein)
chain: FSFLFVQGNQRAHGQDLGTLGSCLQRFTTMPFLFCNVNDVCNFASRNDYSYWLSTPALMPMNMAPITGRALEPYISRCTVCEGPAIAI
modifications: Tumstatin-45-132 (amino acids 45-132 of SEQ ID NO10)
- effect on viability of DU-145 cells (DU-145 cells): not seen
- effect on viability of PC-3 cells (PC-3 cells): not seen
- binding to the endothelial cell surface (HUVEC cells): binds the surface of endothelial cells
